Target: T1, SUMO-MDM2 (full length, residues 1-491) (human, UniProt Q00987 1-491)
T1 construct: MDM2, human, full length, residues 1-491; cloned into a SUMO vector (modified pET-28a); eluted without tag cleavage; also called sumo-tagged MDM2; SUMO-MDM2 fusion protein; source: E. coli BL21 (DE3), purified (HisTrap, Superdex 200)
Assay: pull-down; GST-tagged MAGE-C2 proteins on glutathione Sepharose beads, SUMO-MDM2 added; both expressed in bacterium; 20 mM Tris pH 8, 150 mM NaCl, 0.2 mM TCEP, 0.02% Triton-100, 5% milk powder, 4°C; anti-MDM2 Western blot (Figure 2A)
Conditions: both partners purified

T1 sequence (Q00987 whole entry, the tested form may be a part): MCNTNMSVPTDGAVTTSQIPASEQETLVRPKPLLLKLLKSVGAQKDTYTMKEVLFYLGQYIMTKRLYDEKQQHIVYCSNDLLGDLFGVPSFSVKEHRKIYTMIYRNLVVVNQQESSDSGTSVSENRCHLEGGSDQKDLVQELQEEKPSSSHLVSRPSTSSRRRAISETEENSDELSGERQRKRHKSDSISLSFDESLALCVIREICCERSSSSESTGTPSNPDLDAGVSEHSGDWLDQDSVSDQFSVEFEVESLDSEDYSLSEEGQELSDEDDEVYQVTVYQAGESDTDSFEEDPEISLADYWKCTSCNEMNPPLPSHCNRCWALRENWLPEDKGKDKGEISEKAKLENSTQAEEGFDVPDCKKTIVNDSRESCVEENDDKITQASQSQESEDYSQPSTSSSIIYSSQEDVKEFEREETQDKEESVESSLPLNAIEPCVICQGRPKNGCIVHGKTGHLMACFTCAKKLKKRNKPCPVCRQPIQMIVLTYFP

B1: GST-tagged MAGE-C2 full length (residues 1-373) (natural protein, human, UniProt Q9UBF1 1-373, looked up)
chain: MPPVPGVPFRNVDNDSPTSVELEDWVDAQHPTDEEEEEASSASSTLYLVFSPSSFSTSSSLILGGPEEEEVPSGVIPNLTESIPSSPPQGPPQGPSQSPLSSCCSSFSWSSFSEESSSQKGEDTGTCQGLPDSESSFTYTLDEKVAELVEFLLLKYEAEEPVTEAEMLMIVIKYKDYFPVILKRAREFMELLFGLALIEVGPDHFCVFANTVGLTDEGSDDEGMPENSLLIIILSVIFIKGNCASEEVIWEVLNAVGVYAGREHFVYGEPRELLTKVWVQGHYLEYREVPHSSPPYYEFLWGPRAHSESIKKKVLEFLAKLNNTVPSSFPSWYKDALKDVEERVQATIDTADDATVMASESLSVMSSNVSFSE
notes: MAGE-C2, human, full length, residues 1-373; synthetic gene in pGEX-6p-1 with a 3C protease site after GST; In the ubiquitination assays the GST tag had been cut off with 3C protease; in the pull-down GST was kept; also called MAGE-C2 FL; GST-MAGE-C2; source: E. coli BL21 (DE3), purified (glutathione Sepharose); not shown: GST, N-terminal, kept
Does B1 bind?
Result: binds

B2: GST-tagged MAGE-C2 MHD domain (residues 140-350) (domain or fragment, human, UniProt Q9UBF1 140-350, looked up)
chain: TLDEKVAELVEFLLLKYEAEEPVTEAEMLMIVIKYKDYFPVILKRAREFMELLFGLALIEVGPDHFCVFANTVGLTDEGSDDEGMPENSLLIIILSVIFIKGNCASEEVIWEVLNAVGVYAGREHFVYGEPRELLTKVWVQGHYLEYREVPHSSPPYYEFLWGPRAHSESIKKKVLEFLAKLNNTVPSSFPSWYKDALKDVEERVQATIDT
notes: MAGE-C2, human, MAGE homology domain (MHD), residues 140-350; synthetic gene in pGEX-6p-1; In the ubiquitination assays other forms were used (GST cut off in vitro; Myc-tagged in HEK293T cells); also called MHD^WT; GST-MAGE-C2; source: E. coli BL21 (DE3), purified (glutathione Sepharose); not shown: GST, N-terminal, kept
Does B2 bind?
Result: binds

From PMC9344466, “The Dual Roles of MAGE-C2 in p53 Ubiquitination and Cell Proliferation Through E3 Ligases MDM2 and TRIM28” (Frontiers in Cell and Developmental Biology, 2022)
